The series “crystal structure” deals with the molecule itself. The series is described as follows: crystal structure.
The target of another series is T1, factor H (intact) (human, UniProt P08603 19-1231).
T1 construct: also called FH; intact FH; source: bought: Complement Technology
The series is described as follows: ELISA; M, Enn or FbaA protein coated on wells (20 μg/ml in PBS pH 7.2, overnight 4 °C); soluble intact factor H 10 μg/ml, 1 h, RT; bound FH detected with mouse monoclonal anti-human FH and HRP anti-mouse IgG; uncoated wells subtracted; values normalized to wild type. Particulars: both partners purified. In general terms: In an ELISA, binding on a coated surface is turned into a signal by an enzyme label.

T1 sequence (P08603 19-1231): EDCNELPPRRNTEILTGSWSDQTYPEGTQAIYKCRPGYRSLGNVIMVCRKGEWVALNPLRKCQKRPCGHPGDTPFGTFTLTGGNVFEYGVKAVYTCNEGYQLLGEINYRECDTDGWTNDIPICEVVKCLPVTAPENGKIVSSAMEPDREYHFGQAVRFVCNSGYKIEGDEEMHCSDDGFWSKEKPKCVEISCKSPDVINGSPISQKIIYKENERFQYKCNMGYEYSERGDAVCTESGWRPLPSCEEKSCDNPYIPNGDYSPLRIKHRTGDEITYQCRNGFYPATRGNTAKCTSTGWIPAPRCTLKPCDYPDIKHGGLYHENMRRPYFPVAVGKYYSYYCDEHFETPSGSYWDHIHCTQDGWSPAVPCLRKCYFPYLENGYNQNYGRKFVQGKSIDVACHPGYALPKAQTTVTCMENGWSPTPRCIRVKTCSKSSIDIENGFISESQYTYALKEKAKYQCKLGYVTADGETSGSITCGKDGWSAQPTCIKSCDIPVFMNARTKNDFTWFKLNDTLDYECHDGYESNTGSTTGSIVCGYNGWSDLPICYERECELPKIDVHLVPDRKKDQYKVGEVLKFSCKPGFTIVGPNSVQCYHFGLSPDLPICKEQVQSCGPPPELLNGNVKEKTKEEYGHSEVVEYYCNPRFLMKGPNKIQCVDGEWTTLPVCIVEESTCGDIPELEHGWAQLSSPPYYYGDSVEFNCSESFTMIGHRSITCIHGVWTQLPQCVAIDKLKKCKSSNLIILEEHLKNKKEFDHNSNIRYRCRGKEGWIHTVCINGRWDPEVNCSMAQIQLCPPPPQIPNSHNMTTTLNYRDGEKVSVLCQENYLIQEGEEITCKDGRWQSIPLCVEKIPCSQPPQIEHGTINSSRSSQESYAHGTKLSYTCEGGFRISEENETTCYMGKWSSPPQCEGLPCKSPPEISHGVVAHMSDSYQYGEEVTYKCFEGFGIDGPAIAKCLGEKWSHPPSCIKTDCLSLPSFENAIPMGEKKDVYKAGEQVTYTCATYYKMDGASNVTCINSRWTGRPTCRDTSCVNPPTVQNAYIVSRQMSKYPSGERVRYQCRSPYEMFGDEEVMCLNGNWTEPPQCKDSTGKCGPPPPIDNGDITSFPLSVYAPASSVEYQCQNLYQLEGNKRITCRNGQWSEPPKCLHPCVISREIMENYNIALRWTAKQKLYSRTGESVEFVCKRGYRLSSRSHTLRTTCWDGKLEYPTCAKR

B1: M5 protein fragment (aa 94–175) (domain or fragment)
chain: NEGLKTEKKEHEAENDKLKQQRDTLSTQKETLEREVQNTQYNNETLKIKNGDLTKELNKTRQELANKQQESKENEKALNELL
notes: source: E. coli BL21 (Gold), purified
Turning to B1, in “crystal structure”, the stoichiometry N (commonly the number of molecules, sites or subunits per partner or assembly) was 2.

B2: M6 protein fragment (aa 74–157) (domain or fragment)
chain: NDKLTTENNNLTDQNKNLTTENKNLTDQNKNLTTENKNLTDQNKNLTTENKELKAEENRLTTENKGLTKKLSEAEEEAANKERE
notes: as for B1
Consider B2, for which, in “crystal structure”, the “stoichiometry N” value was found to be 2.

B3: M6 protein, intact wild type (aa 43–452) (natural protein)
chain: RVFPRGTVENPDKARELLNKYDVENSMLQANNDKLTTENNNLTDQNKNLTTENKNLTDQNKNLTTENKNLTDQNKNLTTENKELKAEENRLTTENKGLTKKLSEAEEEAANKERENKEAIGTLKKTLDETVKDKIAKEQESKETIGTLKKTLDETVKDKIAKEQESKETIGTLKKTLDETVKDKIAKEQESKETIGTLKKILDETVKDKIAREQKSKQDIGALKQELAKKDEGNKVSEASRKGLRRDLDASREAKKQVEKDLANLTAELDKVKEEKQISDASRQGLRRDLDASREAKKQVEKALEEANSKLAALEKLNKELEESKKLTEKEKAELQAKLEAEAKALKEQLAKQAEELAKLRAGKASDSQTPDAKPGNKVVPGKGQAPQAGTKPNQNKAPMKETKRQLPST
notes: source: E. coli BL21 (Gold), purified; not shown: His6, C-terminal, kept
With B3, in the series with factor H (intact), the binding result is listed as “binds”.

B4: FbaA (57–130), wild type (domain or fragment)
chain: NWHHIDKDGLIPLGISLEAAKEEFKKEVEESRLSEAQKETYKQKIKTAPDKDKLLFTYHSEYMTAVKDLPASTE
notes: source: E. coli BL21 (Gold), purified; not shown: His6, N-terminal, kept
In the case of B4, the binding result with factor H (intact) is “binds”.

B5: M5 protein, intact wild type (aa 43–377) (natural protein)
chain: AVTRGTINDPQRAKEALDKYELENHDLKTKNEGLKTENEGLKTENEGLKTENEGLKTEKKEHEAENDKLKQQRDTLSTQKETLEREVQNTQYNNETLKIKNGDLTKELNKTRQELANKQQESKENEKALNELLEKTVKDKIAKEQENKETIGTLKKILDETVKDKIAKEQENKETIGTLKKILDETVKDKLAKEQKSKQNIGALKQELAKKDEANKISDASRKGLRRDLDASREAKKQLEAEHQKLEEQNKISEASRKGLRRDLDASREAKKQLEAEQQKLEEQNKISEASRKGLRRDLDASREAKKQVEKALEEANSKLAALEKLNKELEESKK
notes: as for B3
With B5, the binding result in the series with factor H (intact) is reported as “binds”.

For the origin of these results see paper doi:10.1101/2025.08.05.668778 (bioRxiv, 2025).
